# Measured values from patent publication US20240360194A1, “New Peptides as Potent and Selective GIP Receptor Agonists” (Sanofi, priority 2021, published 2024).
# Numbered stars: 1 amine (or outer) side, 2 acyl side, 3 side chain; on linkers, the order of the positions; unused ones are H or OH. Square brackets hold non-standard residues; d marks the D form. Side chains are listed from the residue outwards. Ends that are not written are not given here. * marks the point of attachment. C18 diacid = O=C(O)CCCCCCCCCCCCCCCCC(=O)*; γGlu = O=C(O)[C@H](CCC(=O)[*:2])N[*:1]; AEEA = NCCOCCOCC(=O)O; Aib = CC(C)(N)C(=O)O
# T1: human GIP receptor (human, UniProt P48546 22-466)
# T1 sequence (looked up): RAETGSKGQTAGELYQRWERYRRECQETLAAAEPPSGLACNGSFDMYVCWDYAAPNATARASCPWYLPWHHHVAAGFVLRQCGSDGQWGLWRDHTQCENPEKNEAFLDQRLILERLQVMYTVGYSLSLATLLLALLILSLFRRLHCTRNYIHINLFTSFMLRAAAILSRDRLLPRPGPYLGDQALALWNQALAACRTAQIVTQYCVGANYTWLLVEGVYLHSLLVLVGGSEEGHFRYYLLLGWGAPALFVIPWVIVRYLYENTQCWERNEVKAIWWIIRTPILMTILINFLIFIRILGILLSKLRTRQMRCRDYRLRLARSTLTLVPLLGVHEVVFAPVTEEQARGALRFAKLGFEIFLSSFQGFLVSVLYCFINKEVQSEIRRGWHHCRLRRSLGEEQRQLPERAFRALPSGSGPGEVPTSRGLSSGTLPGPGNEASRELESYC
# B1: SEQ ID NO: 21 (peptide)
# peptide: Y[Aib]EGTFISDLSI[Aib]K([AEEA-AEEA-γGlu-C18 diacid])ERIHQ[Aib]EFIEWLLAQGPSSGAPPPS-NH2
# modifications: N-terminus assumed
# SMILES: CC[C@H](C)[C@H](NC(=O)[C@H](CCCNC(=N)N)NC(=O)[C@H](CCC(=O)O)NC(=O)[C@H](CCCCNC(=O)COCCOCCNC(=O)COCCOCCNC(=O)CC[C@H](NC(=O)CCCCCCCCCCCCCCCCC(=O)O)C(=O)O)NC(=O)C(C)(C)NC(=O)[C@@H](NC(=O)[C@H](CO)NC(=O)[C@H](CC(C)C)NC(=O)[C@H](CC(=O)O)NC(=O)[C@H](CO)NC(=O)[C@@H](NC(=O)[C@H](Cc1ccccc1)NC(=O)[C@@H](NC(=O)CNC(=O)[C@H](CCC(=O)O)NC(=O)C(C)(C)NC(=O)[C@@H](N)Cc1ccc(O)cc1)[C@@H](C)O)[C@@H](C)CC)[C@@H](C)CC)C(=O)N[C@@H](Cc1c[nH]cn1)C(=O)N[C@@H](CCC(N)=O)C(=O)NC(C)(C)C(=O)N[C@@H](CCC(=O)O)C(=O)N[C@@H](Cc1ccccc1)C(=O)N[C@H](C(=O)N[C@@H](CCC(=O)O)C(=O)N[C@@H](Cc1c[nH]c2ccccc12)C(=O)N[C@@H](CC(C)C)C(=O)N[C@@H](CC(C)C)C(=O)N[C@@H](C)C(=O)N[C@@H](CCC(N)=O)C(=O)NCC(=O)N1CCC[C@H]1C(=O)N[C@@H](CO)C(=O)N[C@@H](CO)C(=O)NCC(=O)N[C@@H](C)C(=O)N1CCC[C@H]1C(=O)N1CCC[C@H]1C(=O)N1CCC[C@H]1C(=O)N[C@@H](CO)C(N)=O)[C@@H](C)CC
# notes: Synthetic peptide, 39 residues
# B2: SEQ ID NO: 30 (peptide)
# peptide: Y[Aib]EGTFISDLSI[Aib]K([AEEA-AEEA-γGlu-C18 diacid])DRIHQ[Aib]EFIEWLLAQRPSSGAPPPS-NH2
# modifications: N-terminus assumed
# SMILES: CC[C@H](C)[C@H](NC(=O)[C@H](CCCNC(=N)N)NC(=O)[C@H](CC(=O)O)NC(=O)[C@H](CCCCNC(=O)COCCOCCNC(=O)COCCOCCNC(=O)CC[C@H](NC(=O)CCCCCCCCCCCCCCCCC(=O)O)C(=O)O)NC(=O)C(C)(C)NC(=O)[C@@H](NC(=O)[C@H](CO)NC(=O)[C@H](CC(C)C)NC(=O)[C@H](CC(=O)O)NC(=O)[C@H](CO)NC(=O)[C@@H](NC(=O)[C@H](Cc1ccccc1)NC(=O)[C@@H](NC(=O)CNC(=O)[C@H](CCC(=O)O)NC(=O)C(C)(C)NC(=O)[C@@H](N)Cc1ccc(O)cc1)[C@@H](C)O)[C@@H](C)CC)[C@@H](C)CC)C(=O)N[C@@H](Cc1c[nH]cn1)C(=O)N[C@@H](CCC(N)=O)C(=O)NC(C)(C)C(=O)N[C@@H](CCC(=O)O)C(=O)N[C@@H](Cc1ccccc1)C(=O)N[C@H](C(=O)N[C@@H](CCC(=O)O)C(=O)N[C@@H](Cc1c[nH]c2ccccc12)C(=O)N[C@@H](CC(C)C)C(=O)N[C@@H](CC(C)C)C(=O)N[C@@H](C)C(=O)N[C@@H](CCC(N)=O)C(=O)N[C@@H](CCCNC(=N)N)C(=O)N1CCC[C@H]1C(=O)N[C@@H](CO)C(=O)N[C@@H](CO)C(=O)NCC(=O)N[C@@H](C)C(=O)N1CCC[C@H]1C(=O)N1CCC[C@H]1C(=O)N1CCC[C@H]1C(=O)N[C@@H](CO)C(N)=O)[C@@H](C)CC
# notes: Synthetic peptide, 39 residues (Arg at 30)
# B3: SEQ ID NO: 29 (peptide)
# peptide: Y[Aib]EGTFISDLSI[Aib]K([AEEA-AEEA-γGlu-C18 diacid])DRIHQ[Aib]EFIEWLLAQEPSSGAPPPS-NH2
# modifications: N-terminus assumed
# SMILES: CC[C@H](C)[C@H](NC(=O)[C@H](CCCNC(=N)N)NC(=O)[C@H](CC(=O)O)NC(=O)[C@H](CCCCNC(=O)COCCOCCNC(=O)COCCOCCNC(=O)CC[C@H](NC(=O)CCCCCCCCCCCCCCCCC(=O)O)C(=O)O)NC(=O)C(C)(C)NC(=O)[C@@H](NC(=O)[C@H](CO)NC(=O)[C@H](CC(C)C)NC(=O)[C@H](CC(=O)O)NC(=O)[C@H](CO)NC(=O)[C@@H](NC(=O)[C@H](Cc1ccccc1)NC(=O)[C@@H](NC(=O)CNC(=O)[C@H](CCC(=O)O)NC(=O)C(C)(C)NC(=O)[C@@H](N)Cc1ccc(O)cc1)[C@@H](C)O)[C@@H](C)CC)[C@@H](C)CC)C(=O)N[C@@H](Cc1c[nH]cn1)C(=O)N[C@@H](CCC(N)=O)C(=O)NC(C)(C)C(=O)N[C@@H](CCC(=O)O)C(=O)N[C@@H](Cc1ccccc1)C(=O)N[C@H](C(=O)N[C@@H](CCC(=O)O)C(=O)N[C@@H](Cc1c[nH]c2ccccc12)C(=O)N[C@@H](CC(C)C)C(=O)N[C@@H](CC(C)C)C(=O)N[C@@H](C)C(=O)N[C@@H](CCC(N)=O)C(=O)N[C@@H](CCC(=O)O)C(=O)N1CCC[C@H]1C(=O)N[C@@H](CO)C(=O)N[C@@H](CO)C(=O)NCC(=O)N[C@@H](C)C(=O)N1CCC[C@H]1C(=O)N1CCC[C@H]1C(=O)N1CCC[C@H]1C(=O)N[C@@H](CO)C(N)=O)[C@@H](C)CC
# notes: Synthetic peptide, 39 residues (Glu at 30)
# B4: SEQ ID NO: 27 (peptide)
# peptide: Y[Aib]EGTFISDLSI[Aib]K([AEEA-AEEA-γGlu-C18 diacid])DRIHQEEFIEWLLAQEPSSGAPPPS-NH2
# modifications: N-terminus assumed
# SMILES: CC[C@H](C)[C@H](NC(=O)[C@H](Cc1ccccc1)NC(=O)[C@H](CCC(=O)O)NC(=O)[C@H](CCC(=O)O)NC(=O)[C@H](CCC(N)=O)NC(=O)[C@H](Cc1c[nH]cn1)NC(=O)[C@@H](NC(=O)[C@H](CCCNC(=N)N)NC(=O)[C@H](CC(=O)O)NC(=O)[C@H](CCCCNC(=O)COCCOCCNC(=O)COCCOCCNC(=O)CC[C@H](NC(=O)CCCCCCCCCCCCCCCCC(=O)O)C(=O)O)NC(=O)C(C)(C)NC(=O)[C@@H](NC(=O)[C@H](CO)NC(=O)[C@H](CC(C)C)NC(=O)[C@H](CC(=O)O)NC(=O)[C@H](CO)NC(=O)[C@@H](NC(=O)[C@H](Cc1ccccc1)NC(=O)[C@@H](NC(=O)CNC(=O)[C@H](CCC(=O)O)NC(=O)C(C)(C)NC(=O)[C@@H](N)Cc1ccc(O)cc1)[C@@H](C)O)[C@@H](C)CC)[C@@H](C)CC)[C@@H](C)CC)C(=O)N[C@@H](CCC(=O)O)C(=O)N[C@@H](Cc1c[nH]c2ccccc12)C(=O)N[C@@H](CC(C)C)C(=O)N[C@@H](CC(C)C)C(=O)N[C@@H](C)C(=O)N[C@@H](CCC(N)=O)C(=O)N[C@@H](CCC(=O)O)C(=O)N1CCC[C@H]1C(=O)N[C@@H](CO)C(=O)N[C@@H](CO)C(=O)NCC(=O)N[C@@H](C)C(=O)N1CCC[C@H]1C(=O)N1CCC[C@H]1C(=O)N1CCC[C@H]1C(=O)N[C@@H](CO)C(N)=O
# notes: as for B3
# Molecular target: T2, human GLP-1 receptor (human, UniProt P43220 24-463)
# Assay: cell-based or functional assay
row,Binder,"EC50 hGLP-1R 0.1% BSA (cAMP, HEK-293) [pM]"
1,B1,> 10000
2,B2,> 10000
3,B3,> 10000
4,B4,> 10000

# Molecular target: T1, human GIP receptor
# Assay: cell-based or functional assay
Binder,"EC50 hGIPR 0% HSA (cAMP, HEK-293) [pM]","EC50 hGIPR 0.1% BSA (cAMP, HEK-293) [pM]"
B1,0.19,8.36
B2,0.48,11
B3,0.15,15.2
B4,0.29,32

# Molecular target: T2, human GLP-1 receptor
# Assay: displacement of [125I]GLP-1 from HEK-293 membranes expressing hGLP-1R (SPA beads)
row,Binder,IC50 [pM]
1,B1,146000
2,B2,151000
3,B3,287000
4,B4,465000

# Molecular target: T1, human GIP receptor
# Assay: cell-based or functional assay
# Remark: another data set of the same source
Binder,"hGIPR EC50 (cAMP, human adipocytes) [pM]","hGIPR Emax (cAMP, human adipocytes) [%]"
B1,2800,120
B2,500,138
B3,5300,119
B4,600,116
